Measurements reported in the supplement of paper PMC9732359.
± gives the uncertainty stated by the source.

Test: protein stability index of a GFP-peptide fusion (yeast GPS) (PSI 1-4); higher = more stable; sorted into four equal gates, so the index is relative within each strain
Outline: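 Yeast carrying a pooled library were grown to mid-log phase in leucine-free medium. Each library plasmid expresses Cherry and has a tiled 17-residue yeast protein peptide fused downstream of GFP. Cells were sorted into four equal gates by GFP/Cherry ratio, and plasmids from each gate were PCR-amplified, Illumina-sequenced and assigned to strains by barcode. Summing, across gates, the read frequency times the gate number gave each peptide's protein stability index.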

Row | Sequence | protein stability index (doa10∆) | protein stability index (pdr5∆) | protein stability index (san1∆) | protein stability index (ubr1∆)
1 | KLAFGLTKLNEDDLVGV [TAF14] | 2.94 ± 0.092 | 3.15 ± 0.072 | 3.25 ± 0.054 | 3 ± 0.057
2 | GTGKTMLVKAVANSTKA [RPT3] | 2.64 ± 0.19 | 1.47 ± 0.1 | 2.02 ± 0.096 | 1.31 ± 0.13
3 | LANWFLEVYASGNPNAT [YML031W/NDC1] | 2.03 ± 0.055 | 2.17 ± 0.046 | 2.37 ± 0.075 | 1.69 ± 0.045
4 | QRYVKSVKSVKFPTRKI [RPC34] |  |  | 3.26 ± 0.11 | 
5 | TGWNAKTYGISDDIISQ [FAS2] | 1.99 ± 0.14 | 1.12 ± 0.12 | 1.72 ± 0.24 | 1.2 ± 0.091
6 | FDRHCNMVLENVKELWT [SMD2] | 2.37 ± 0.081 | 2.38 ± 0.088 | 1.84 ± 0.1 | 2.03 ± 0.1
7 | RLPVSEDTNTKPLFDFG [YOR098C/NUP1] | 2.76 ± 0.13 | 2.76 ± 0.12 | 1.93 ± 0.23 | 3.08 ± 0.13
8 | ESTTEATGNESQDATKV [YLR335W/NUP2] | 3.04 ± 0.071 | 3.23 ± 0.081 | 3.12 ± 0.11 | 3.21 ± 0.075
9 | LAKYRDAGKIDKHLYHV [RPL19A] | 3.3 ± 0.18 | 3.39 ± 0.15 | 1.27 ± 0.28 | 3.61 ± 0.095
10 | TRSQFCLNTQRGDSTET [RRI1] | 3.07 ± 0.094 | 3.32 ± 0.094 | 3.22 ± 0.063 | 3 ± 0.076
11 | VSVLLISKDCSAFACKT [BRR2] | 1.96 ± 0.052 | 2.27 ± 0.042 | 2.21 ± 0.064 | 2.17 ± 0.049
12 | YKDSLALINDLLREFKK [RPN6] |  | 2.42 ± 0.22 | 1.86 ± 0.22 | 3.21 ± 0.23
13 | VEKNEIGKMYDEYLGSH [NNF1] | 3.38 ± 0.17 | 3.3 ± 0.15 | 3.28 ± 0.12 | 3.18 ± 0.086
14 | QKVLNAHRQRAMEARSS [SMC4] | 1.95 ± 0.12 | 2.36 ± 0.15 | 1.98 ± 0.15 | 1.32 ± 0.073
15 | PVGRELDPISLILIPGE [RPN13] | 2.65 ± 0.098 | 2.56 ± 0.05 | 3.13 ± 0.062 | 3.23 ± 0.098
16 | VKSVNDPSQNRLTGSLL [RPC37] | 3.16 ± 0.089 | 3.48 ± 0.11 | 3.04 ± 0.11 | 3.08 ± 0.048
17 | KRPGKLSDYIPGPYPNE [CYT1] | 3.19 ± 0.059 | 3.22 ± 0.06 | 3.24 ± 0.041 | 3.16 ± 0.037
18 | SGEPIIAATQDFITGSY [RPO31] | 3.36 ± 0.1 | 3.3 ± 0.095 | 3.13 ± 0.12 | 3.18 ± 0.039
19 | TFLESINGINWRFHTPQ [SIN4] | 2.4 ± 0.054 | 1.86 ± 0.048 | 1.93 ± 0.12 | 2.02 ± 0.043
20 | EHLDCMNFISKEEFIMM [PCI8] |  |  |  | 3.17 ± 0.16
21 | FAQGKRRYDRKQSGFGG [RPL42A] | 3.6 ± 0.25 | 3.57 ± 0.28 | 3.06 ± 0.29 | 3.34 ± 0.061
22 | TGKFVLQGQMEKIMILL [CSN12] | 1.61 ± 0.1 | 2.2 ± 0.12 | 1.31 ± 0.2 | 1.51 ± 0.12
23 | LREEIFIANEGVHTGQF [RPL2A] | 2.8 ± 0.084 | 2.84 ± 0.074 | 2.92 ± 0.06 | 3.03 ± 0.059
24 | EDNKYAIAGNSTTNSDV [RGR1] | 2.89 ± 0.13 | 2.92 ± 0.12 | 2.99 ± 0.06 | 2.93 ± 0.08
25 | SKKDPRILKNVSPNDNN [YMR153W/NUP53] | 2.65 ± 0.069 | 2.36 ± 0.045 | 2.42 ± 0.054 | 2.47 ± 0.034
26 | GDANNRWDKEEYQSLMS [SMC1] | 3.36 ± 0.21 | 3.03 ± 0.29 | 3.05 ± 0.28 | 3.21 ± 0.073

Row | Sequence | protein stability index (doa10∆) | protein stability index (pdr5∆) | protein stability index (san1∆) | protein stability index (ubr1∆)
27 | RGGVKRISGLIYEEVRA [HHF1] | 3.35 ± 0.13 | 3.13 ± 0.2 | 3.15 ± 0.11 | 
28 | IKSIIEQRKQKLSKILP [SMC3] | 2.44 ± 0.084 | 2.7 ± 0.091 | 2.52 ± 0.081 | 2.82 ± 0.078
29 | RQQQENSSKIITLDLSN [SMC1] | 3.22 ± 0.11 | 3.35 ± 0.066 | 3.18 ± 0.066 | 3.18 ± 0.061
30 | NLTYYNEKLECISLGST [ITC1] | 2.2 ± 0.061 | 2.39 ± 0.044 | 2.32 ± 0.044 | 2.45 ± 0.04
31 | PNIRTMSGTTKRLNGKR [SSN2] | 2.24 ± 0.23 | 2.74 ± 0.22 | 2.39 ± 0.17 | 3.46 ± 0.11
32 | LTKYIRSKNLIFNGETL [GRR1] | 2.52 ± 0.086 | 2.43 ± 0.06 | 1.92 ± 0.078 | 1.91 ± 0.06
33 | HAPAYHRSKKDQDQYLE [IRR1] |  | 3.56 ± 0.3 | 2.95 ± 0.19 | 
34 | NAARKAEASGEAADEAD [RPS9A] | 3.29 ± 0.24 | 3.03 ± 0.29 |  | 3.47 ± 0.11
35 | NEDARAIFNNEFDSDDD [RPN4] | 3.09 ± 0.075 | 2.87 ± 0.096 | 3.42 ± 0.073 | 3.41 ± 0.097
36 | SKTSENKVSNTVSPTQD [SIR2] | 2.98 ± 0.14 | 3.12 ± 0.066 | 2.83 ± 0.093 | 3.15 ± 0.12
37 | KCGSVTVRLIPAPRGSG [RPS2] | 1.35 ± 0.11 | 2.07 ± 0.072 | 1.4 ± 0.17 | 1.99 ± 0.1
38 | DASPDSLEALIDLCHDF [YCS4] | 2.81 ± 0.055 | 2.9 ± 0.047 | 2.86 ± 0.054 | 2.86 ± 0.041
39 | RCGRRSFHVQKKTCSSC [RPL37A] | 2.3 ± 0.04 | 2.56 ± 0.061 | 2.47 ± 0.048 | 2.39 ± 0.038
40 | FEGCYYTPEESAWIWPM [RPC25] |  | 2.3 ± 0.21 | 2.55 ± 0.2 | 2.52 ± 0.13
41 | DEIKAQRKEIKDRISSC [SMC4] | 3 ± 0.062 | 3.03 ± 0.054 | 3.13 ± 0.061 | 3.07 ± 0.053
42 | SVRSLQKRIENGGNSVI [SRP68] | 1.7 ± 0.085 | 1.82 ± 0.064 | 2.29 ± 0.096 | 1.85 ± 0.1
43 | CDVFWVQKDTAIIRLHP [POP1] | 2.29 ± 0.079 | 2.62 ± 0.097 | 2.5 ± 0.095 | 2.58 ± 0.079
44 | LRKQYSAIDEEIEELID [SMC3] |  | 2.98 ± 0.2 |  | 3.26 ± 0.2
45 | SLYIFFTTLLESKQDGL [YML103C/NUP188] | 2.29 ± 0.12 | 1.42 ± 0.085 | 1.25 ± 0.1 | 1.19 ± 0.036
46 | NAISNTQDDFTTSVDVM [SRP54] | 2.79 ± 0.076 | 2.76 ± 0.061 | 3.1 ± 0.064 | 3.2 ± 0.045
47 | EFGADWYKVAKNVGNKS [SWI3] | 3.35 ± 0.1 | 3.34 ± 0.083 | 3.35 ± 0.048 | 3.3 ± 0.051
48 | TYKYPSLKGVDPKFRRN [RPL29] | 3.03 ± 0.11 | 2.88 ± 0.25 | 2.97 ± 0.12 | 3.12 ± 0.09
49 | KLYDAKRYTSEGTRNRF [YMR129W/POM152] | 3.02 ± 0.098 | 3.15 ± 0.087 | 3.23 ± 0.058 | 3.02 ± 0.055
50 | AQEDVPYLLPYILEAEA [QCR7] | 2.02 ± 0.048 | 1.79 ± 0.046 | 2.03 ± 0.067 | 1.86 ± 0.038
51 | RGKKGLKKKVVDPFTRK [RPS1B] | 3.73 ± 0.15 | 3.34 ± 0.082 | 3.35 ± 0.074 | 3.27 ± 0.088
